From IntAct's records for PubMed 20961850

B1: Phospholipid-transporting ATPase ID (Homo sapiens), P98198 (parent)
chain: MTVPKEMPEKWARAQAPPSWSRKKPSWGTEEERRARANDREYNEKFQYASNCIKTSKYNILTFLPVNLFEQFQEVANTYFLFLLILQLIPQISSLSWFTTIVPLVLVLTITAVKDATDDYFRHKSDNQVNNRQSQVLINGILQQEQWMNVCVGDIIKLENNQFVAADLLLLSSSEPHGLCYIETAELDGETNMKVRQAIPVTSELGDISKLAKFDGEVICEPPNNKLDKFSGTLYWKENKFPLSNQNMLLRGCVLRNTEWCFGLVIFAGPDTKLMQNSGRTKFKRTSIDRLMNTLVLWIFGFLVCMGVILAIGNAIWEHEVGMRFQVYLPWDEAVDSAFFSGFLSFWSYIIILNTVVPISLYVSVEVIRLGHSYFINWDKKMFCMKKRTPAEARTTTLNEELGQVEYIFSDKTGTLTQNIMVFNKCSINGHSYGDVFDVLGHKAELGERPEPVDFSFNPLADKKFLFWDPSLLEAVKIGDPHTHEFFRLLSLCHTVMSEEKNEGELYYKAQSPDEGALVTAARNFGFVFRSRTPKTITVHEMGTAITYQLLAILDFNNIRKRMSVIVRNPEGKIRLYCKGADTILLDRLHHSTQELLNTTMDHLNEYAGEGLRTLVLAYKDLDEEYYEEWAERRLQASLAQDSREDRLASIYEEVENNMMLLGATAIEDKLQQGVPETIALLTLANIKIWVLTGDKQETAVNIGYSCKMLTDDMTEVFIVTGHTVLEVREELRKAREKMMDSSRSVGNGFTYQDKLSSSKLTSVLEAVAGEYALVINGHSLAHALEADMELEFLETACACKAVICCRVTPLQKAQVVELVKKYKKAVTLAIGDGANDVSMIKTAHIGVGISGQEGIQAVLASDYSFSQFKFLQRLLLVHGRWSYLRMCKFLCYFFYKNFAFTMVHFWFGFFCGFSAQTVYDQYFITLYNIVYTSLPVLAMGVFDQDVPEQRSMEYPKLYEPGQLNLLFNKREFFICIAQGIYTSVLMFFIPYGVFADATRDDGTQLADYQSFAVTVATSLVIVVSVQIGLDTGYWTAINHFFIWGSLAVYFAILFAMHSNGLFDMFPNQFRFVGNAQNTLAQPTVWLTIVLTTVVCIMPVVAFRFLRLNLKPDLSDTVRYTQLVRKKQKAQHRCMRRVGRTGSRRSGYAFSHQEGFGELIMSGKNMRLSSLALSSFTTRSSSSWIESLRRKKSDSASSPSGGADKPLKG
partner: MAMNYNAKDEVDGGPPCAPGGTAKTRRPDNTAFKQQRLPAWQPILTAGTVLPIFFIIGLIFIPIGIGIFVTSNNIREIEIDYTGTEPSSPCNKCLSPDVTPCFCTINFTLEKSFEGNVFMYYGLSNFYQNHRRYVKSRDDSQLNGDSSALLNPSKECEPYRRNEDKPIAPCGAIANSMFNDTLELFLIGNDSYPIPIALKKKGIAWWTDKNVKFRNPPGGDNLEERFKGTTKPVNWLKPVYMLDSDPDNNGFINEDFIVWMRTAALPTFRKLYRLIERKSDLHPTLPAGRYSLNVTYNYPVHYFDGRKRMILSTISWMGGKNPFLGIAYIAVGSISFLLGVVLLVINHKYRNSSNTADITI
B2: Phospholipid-transporting ATPase IC (Homo sapiens), O43520 (parent)
chain: MSTERDSETTFDEDSQPNDEVVPYSDDETEDELDDQGSAVEPEQNRVNREAEENREPFRKECTWQVKANDRKYHEQPHFMNTKFLCIKESKYANNAIKTYKYNAFTFIPMNLFEQFKRAANLYFLALLILQAVPQISTLAWYTTLVPLLVVLGVTAIKDLVDDVARHKMDKEINNRTCEVIKDGRFKVAKWKEIQVGDVIRLKKNDFVPADILLLSSSEPNSLCYVETAELDGETNLKFKMSLEITDQYLQREDTLATFDGFIECEEPNNRLDKFTGTLFWRNTSFPLDADKILLRGCVIRNTDFCHGLVIFAGADTKIMKNSGKTRFKRTKIDYLMNYMVYTIFVVLILLSAGLAIGHAYWEAQVGNSSWYLYDGEDDTPSYRGFLIFWGYIIVLNTMVPISLYVSVEVIRLGQSHFINWDLQMYYAEKDTPAKARTTTLNEQLGQIHYIFSDKTGTLTQNIMTFKKCCINGQIYGDHRDASQHNHNKIEQVDFSWNTYADGKLAFYDHYLIEQIQSGKEPEVRQFFFLLAVCHTVMVDRTDGQLNYQAASPDEGALVNAARNFGFAFLARTQNTITISELGTERTYNVLAILDFNSDRKRMSIIVRTPEGNIKLYCKGADTVIYERLHRMNPTKQETQDALDIFANETLRTLCLCYKEIEEKEFTEWNKKFMAASVASTNRDEALDKVYEEIEKDLILLGATAIEDKLQDGVPETISKLAKADIKIWVLTGDKKETAENIGFACELLTEDTTICYGEDINSLLHARMENQRNRGGVYAKFAPPVQESFFPPGGNRALIITGSWLNEILLEKKTKRNKILKLKFPRTEEERRMRTQSKRRLEAKKEQRQKNFVDLACECSAVICCRVTPKQKAMVVDLVKRYKKAITLAIGDGANDVNMIKTAHIGVGISGQEGMQAVMSSDYSFAQFRYLQRLLLVHGRWSYIRMCKFLRYFFYKNFAFTLVHFWYSFFNGYSAQTAYEDWFITLYNVLYTSLPVLLMGLLDQDVSDKLSLRFPGLYIVGQRDLLFNYKRFFVSLLHGVLTSMILFFIPLGAYLQTVGQDGEAPSDYQSFAVTIASALVITVNFQIGLDTSYWTFVNAFSIFGSIALYFGIMFDFHSAGIHVLFPSAFQFTGTASNALRQPYIWLTIILAVAVCLLPVVAIRFLSMTIWPSESDKIQKHRKRLKAEEQWQRRQQVFRRGVSTRRSAYAFSHQRGYADLISSGRSIRKKRSPLDAIVADGTAEYRRTGDS
partner: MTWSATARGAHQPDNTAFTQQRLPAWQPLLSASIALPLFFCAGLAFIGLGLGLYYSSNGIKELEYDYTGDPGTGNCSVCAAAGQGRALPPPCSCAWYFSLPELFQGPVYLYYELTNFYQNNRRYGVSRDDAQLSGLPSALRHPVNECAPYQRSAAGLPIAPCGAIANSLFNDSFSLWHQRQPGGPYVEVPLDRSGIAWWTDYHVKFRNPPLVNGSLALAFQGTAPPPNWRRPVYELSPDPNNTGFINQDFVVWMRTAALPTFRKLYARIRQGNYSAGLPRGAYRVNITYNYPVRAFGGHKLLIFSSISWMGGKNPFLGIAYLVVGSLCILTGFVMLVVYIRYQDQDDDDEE
B3: Phospholipid-transporting ATPase IC (Homo sapiens), O43520 (parent)
chain: B2 chain
partner: B1 partner
B4: Phospholipid-transporting ATPase ID (Homo sapiens), P98198 (parent)
chain: B1 chain
partner: B2 partner

Variants of: B1
Conditions: with cc50a_human TMEM30A

| Variant | effect of a mutation on the interaction |
| --- | --- |
| D411N | decreasing interaction strength |

Variants of: B2
Conditions: with cc50b_human TMEM30B

| Variant | effect of a mutation on the interaction |
| --- | --- |
| D454N | decreasing interaction strength |

Variants of: B3
Conditions: with cc50a_human TMEM30A

| Variant | effect of a mutation on the interaction |
| --- | --- |
| D454N | decreasing interaction strength |

Variants of: B4
Conditions: with cc50b_human TMEM30B

| Variant | effect of a mutation on the interaction |
| --- | --- |
| D411N | with no effect |
